We go through 2 molecules from paper PMC10450190, “RIG-I recognizes metabolite-capped RNAs as signaling ligands”.

The target in the data set is T1, RIG-I (UniProt O95786 1-925).
T1 sequence: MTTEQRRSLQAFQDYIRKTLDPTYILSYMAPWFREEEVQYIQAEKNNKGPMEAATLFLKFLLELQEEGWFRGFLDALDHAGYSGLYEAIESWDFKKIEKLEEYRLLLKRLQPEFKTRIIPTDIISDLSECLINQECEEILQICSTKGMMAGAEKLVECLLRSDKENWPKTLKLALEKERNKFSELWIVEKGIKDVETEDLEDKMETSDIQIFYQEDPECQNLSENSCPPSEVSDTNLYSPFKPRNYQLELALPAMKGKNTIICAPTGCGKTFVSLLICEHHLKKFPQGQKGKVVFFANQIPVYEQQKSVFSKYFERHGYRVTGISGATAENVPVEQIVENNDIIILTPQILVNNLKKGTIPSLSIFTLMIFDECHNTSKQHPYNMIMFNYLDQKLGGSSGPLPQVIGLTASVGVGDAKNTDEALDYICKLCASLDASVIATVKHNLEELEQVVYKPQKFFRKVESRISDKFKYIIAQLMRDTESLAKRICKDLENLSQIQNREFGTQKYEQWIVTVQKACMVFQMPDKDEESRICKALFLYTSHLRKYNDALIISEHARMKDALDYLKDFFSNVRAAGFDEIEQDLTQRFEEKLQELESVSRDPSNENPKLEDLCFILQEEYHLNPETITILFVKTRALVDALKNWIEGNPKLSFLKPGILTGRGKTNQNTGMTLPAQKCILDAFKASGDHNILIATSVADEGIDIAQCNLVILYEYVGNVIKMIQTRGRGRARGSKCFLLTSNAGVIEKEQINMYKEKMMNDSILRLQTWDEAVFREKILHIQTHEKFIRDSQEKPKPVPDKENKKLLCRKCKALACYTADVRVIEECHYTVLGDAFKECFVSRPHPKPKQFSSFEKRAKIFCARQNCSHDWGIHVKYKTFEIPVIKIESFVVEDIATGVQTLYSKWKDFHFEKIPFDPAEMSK
The data set is described as follows: competition (fluorescence polarization); 0.5 mM ATP; vs labeled 5' PPP ds39; 50 mM MOPS pH 7.4, 5 mM DTT, 5 mM MgCl2, 0.01% Tween20; 25 C (ATPase, 2 mM ATP; FP, 0.5 mM ATP); EMSA 4 C with 2 mM ATP, 75 nM RIG-I, 25 nM RNA. As to conditions: protein: recombinant; tags: none (6xHis-SUMO removed by Ulp1); label: none; single-stranded. Background: In EMSA bound probe runs differently from free probe, usually more slowly.

B1: 5' PPP ss39 (ssRNA)
RNA: AGUUGGUGGUUGUUGUGUGUUUGUGGUUGGUUUGUUUGG
modifications: 5' triphosphate
For the molecule B1, the binding result was “no binding”.

B2: 5' NAD+ ss39 (ssRNA)
RNA: AGUUGGUGGUUGUUGUGUGUUUGUGGUUGGUUUGUUUGG
modifications: 5' NAD+ cap
As for B2, the binding result is given as “no binding”.
